This is an account of results in article PMC8373891.

This test deals with T1, IFNAR1/IFNAR2 receptor (human (endogenous in HEK293)) (UniProt P17181).
T1 sequence 1: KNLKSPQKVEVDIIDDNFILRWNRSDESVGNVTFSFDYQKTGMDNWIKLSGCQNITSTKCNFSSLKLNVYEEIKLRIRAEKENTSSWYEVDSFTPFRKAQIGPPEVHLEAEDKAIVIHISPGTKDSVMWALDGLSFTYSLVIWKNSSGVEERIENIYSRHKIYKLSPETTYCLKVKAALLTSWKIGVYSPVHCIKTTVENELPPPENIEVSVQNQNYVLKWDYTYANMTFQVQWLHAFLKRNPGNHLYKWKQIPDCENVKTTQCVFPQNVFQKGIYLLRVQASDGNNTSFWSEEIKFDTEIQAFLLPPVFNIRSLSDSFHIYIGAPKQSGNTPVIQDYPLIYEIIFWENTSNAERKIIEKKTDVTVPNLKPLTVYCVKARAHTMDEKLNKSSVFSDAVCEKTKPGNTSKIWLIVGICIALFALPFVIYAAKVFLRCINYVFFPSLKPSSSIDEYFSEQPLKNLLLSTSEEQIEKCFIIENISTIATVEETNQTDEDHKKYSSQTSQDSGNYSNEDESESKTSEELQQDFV
T1 sequence 2: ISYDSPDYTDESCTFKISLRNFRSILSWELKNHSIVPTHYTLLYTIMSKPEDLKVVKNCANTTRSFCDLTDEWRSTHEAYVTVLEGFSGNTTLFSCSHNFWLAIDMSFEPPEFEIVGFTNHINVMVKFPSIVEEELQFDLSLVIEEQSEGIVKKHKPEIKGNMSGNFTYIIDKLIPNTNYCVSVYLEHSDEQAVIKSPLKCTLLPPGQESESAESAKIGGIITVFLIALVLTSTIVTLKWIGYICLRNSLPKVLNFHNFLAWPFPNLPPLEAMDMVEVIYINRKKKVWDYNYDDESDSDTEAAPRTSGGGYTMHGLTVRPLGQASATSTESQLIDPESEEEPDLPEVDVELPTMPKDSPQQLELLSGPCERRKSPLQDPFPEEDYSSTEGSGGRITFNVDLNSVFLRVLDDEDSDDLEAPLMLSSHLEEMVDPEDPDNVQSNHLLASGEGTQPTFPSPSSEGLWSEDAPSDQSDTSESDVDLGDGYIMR

B1: IFNα-7 (ligand)
chain: CDLPQTHSLRNRRALILLAQMGRISPFSCLKDRHEFRFPEEEFDGHQFQKTQAISVLHEMIQQTFNLFSTEDSSAAWEQSLLEKFSTELYQQLNDLEACVIQEVGVEETPLMNEDFILAVRKYFQRITLYLMEKKYSPCAWEVVRAEIMRSFSFSTNLKKGLRRKD
Turning to B1, the EC50 of ISG54-driven secreted embryonic alkaline phosphatase in the HEK293 (HEK-BLUE IFN-αβ) reporter cell line, dose response, 24 h amounted to 3.3 nM.

B2: IFNα-10 (ligand)
chain: CDLPQTHSLGNRRALILLGQMGRISPFSCLKDRHDFRIPQEEFDGNQFQKAQAISVLHEMIQQTFNLFSTEDSSAAWEQSLLEKFSTELYQQLNDLEACVIQEVGVEETPLMNEDSILAVRKYFQRITLYLIERKYSPCAWEVVRAEIMRSLSFSTNLQKRLRRKD
B2 displayed an EC50 of ISG54-driven secreted embryonic alkaline phosphatase in the HEK293 (HEK-BLUE IFN-αβ) reporter cell line, dose response, 24 h of 0.3 nM.
